Results as given in patent publication US20100092484A1.

Assays:
[1] = molecular target: human CD44-IgG1 fusion protein (extracellular domain of human CD44 fused to human IgG1) (human); experiment: ELISA: antibody pre-mixed with human CD44-Ig (0.6 µg/ml); inhibition of CD44-Ig binding to plate-coated hyaluronic acid (HA)
[2] = molecular target: human CD44 (on cells) (human) (UniProt P16070); experiment: cell-based or functional assay
[3] = molecular target: cynomolgus CD44 (on cells) (cynomolgus monkey); experiment: cell-based or functional assay
[4] = molecular target: lymphatic vessel endothelial hyaluronan receptor 1 protein (LYVE-1) (R&D, Cat. No. 2089-Ly) (UniProt Q9Y5Y7); experiment: ELISA on plate-coated LYVE-1 (50 ng), anti-goat IgG-HRP detection
lymphatic vessel endothelial hyaluronan receptor 1 protein (LYVE-1) (R&D, Cat. No. 2089-Ly), sequence (Q9Y5Y7 24-232 limits assumed): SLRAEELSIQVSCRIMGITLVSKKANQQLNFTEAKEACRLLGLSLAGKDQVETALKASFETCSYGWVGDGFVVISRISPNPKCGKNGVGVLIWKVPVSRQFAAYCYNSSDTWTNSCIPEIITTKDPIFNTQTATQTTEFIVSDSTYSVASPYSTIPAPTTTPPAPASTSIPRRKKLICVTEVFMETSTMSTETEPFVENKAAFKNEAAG

human CD44 (on cells) (human), sequence (P16070 other isoform, or with tags, fused parts or gaps limits assumed): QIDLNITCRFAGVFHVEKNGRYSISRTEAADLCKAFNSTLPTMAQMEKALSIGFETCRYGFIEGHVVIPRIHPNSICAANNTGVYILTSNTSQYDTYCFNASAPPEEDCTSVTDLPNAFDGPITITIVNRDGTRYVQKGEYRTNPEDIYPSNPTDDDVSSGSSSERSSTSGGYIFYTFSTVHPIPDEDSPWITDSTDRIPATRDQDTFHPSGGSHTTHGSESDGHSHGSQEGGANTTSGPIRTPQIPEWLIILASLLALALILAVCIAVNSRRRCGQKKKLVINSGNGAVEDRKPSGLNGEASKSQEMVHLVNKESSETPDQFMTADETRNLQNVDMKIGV
human CD44-IgG1 fusion protein (extracellular domain of human CD44 fused to human IgG1) (human), sequence (chain, as listed by the source limits assumed): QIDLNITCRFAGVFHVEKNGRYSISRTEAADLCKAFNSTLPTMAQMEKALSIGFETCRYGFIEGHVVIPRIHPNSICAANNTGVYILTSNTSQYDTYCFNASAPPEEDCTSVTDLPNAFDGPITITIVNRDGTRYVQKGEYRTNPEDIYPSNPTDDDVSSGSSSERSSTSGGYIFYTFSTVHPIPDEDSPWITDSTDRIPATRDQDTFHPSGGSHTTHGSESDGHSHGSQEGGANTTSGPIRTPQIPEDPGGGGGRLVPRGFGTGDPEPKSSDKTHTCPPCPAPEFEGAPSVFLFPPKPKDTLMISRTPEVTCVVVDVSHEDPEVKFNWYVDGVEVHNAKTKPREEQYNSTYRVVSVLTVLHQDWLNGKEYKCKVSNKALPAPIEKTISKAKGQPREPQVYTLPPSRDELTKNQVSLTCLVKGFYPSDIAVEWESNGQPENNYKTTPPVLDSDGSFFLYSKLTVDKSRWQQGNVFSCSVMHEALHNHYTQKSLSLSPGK
cynomolgus CD44 (on cells) (cynomolgus monkey), sequence (P16070 other isoform, or with tags, fused parts or gaps limits assumed): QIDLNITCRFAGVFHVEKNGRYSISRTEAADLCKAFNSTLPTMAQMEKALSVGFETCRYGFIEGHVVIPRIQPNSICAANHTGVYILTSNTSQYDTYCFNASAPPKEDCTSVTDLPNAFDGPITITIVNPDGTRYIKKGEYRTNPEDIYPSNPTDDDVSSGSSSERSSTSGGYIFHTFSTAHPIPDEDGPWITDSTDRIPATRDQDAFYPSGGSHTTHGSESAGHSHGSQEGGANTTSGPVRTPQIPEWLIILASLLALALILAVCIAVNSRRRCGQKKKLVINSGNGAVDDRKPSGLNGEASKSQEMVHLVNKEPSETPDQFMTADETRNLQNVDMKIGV

| IC50 [1] | IC50 of IL-1β release from purified human PBMC stimulated by HA [2] | IC50 of reduction of CD44 surface expression on cynomolgus peripheral CD3+ T cells (FACS) [3] | IC50 of reduction of CD44 surface expression on human peripheral CD3+ T cells (FACS) [2] | EC50 [4] | Substance |
| --- | --- | --- | --- | --- | --- |
| 0.32 µg/mL | 1.46 µg/mL |  |  |  | anti-CD44 antibody 515 (BD Bioscience, Cat. No. 550990) |
| 1.85 µg/mL | 1.62 µg/mL | 9.9 µg/mL | 1.5 µg/mL |  | anti-CD44 antibody IM7 (BD Bioscience, Cat. No. 553134) |
|  |  |  |  | 0.1 µg/mL | anti-LYVE-1 antibody (R&D, Cat. No. AF 2089) |
